T1: mouse Nectin-4 (mouse, UniProt Q8R007 31-508)
T1 construct: whole, on cells; Transiently expressed on CHO-K1 cells; also called murine Nectin-4
T1 sequence (looked up): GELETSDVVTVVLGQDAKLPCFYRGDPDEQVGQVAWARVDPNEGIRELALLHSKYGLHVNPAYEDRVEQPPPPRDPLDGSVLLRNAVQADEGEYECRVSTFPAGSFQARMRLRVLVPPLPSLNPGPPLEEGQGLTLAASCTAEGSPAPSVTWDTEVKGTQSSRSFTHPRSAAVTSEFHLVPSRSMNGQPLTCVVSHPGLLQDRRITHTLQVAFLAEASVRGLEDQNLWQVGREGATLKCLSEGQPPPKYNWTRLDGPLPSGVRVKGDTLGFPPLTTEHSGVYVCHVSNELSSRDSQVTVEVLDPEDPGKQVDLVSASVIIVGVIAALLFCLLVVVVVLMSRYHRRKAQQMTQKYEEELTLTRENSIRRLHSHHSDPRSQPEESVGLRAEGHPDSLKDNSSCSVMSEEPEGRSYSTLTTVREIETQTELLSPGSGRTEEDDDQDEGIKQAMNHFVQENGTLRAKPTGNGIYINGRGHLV

T2: recombinant purified human Nectin-4-Fc fusion protein (human, UniProt Q96NY8 32-349)
T2 construct: Bought ('Aero Biosystems' as printed); not shown: Fc part of the bought fusion protein; captured by anti-human IgG Fc sensors
T2 sequence: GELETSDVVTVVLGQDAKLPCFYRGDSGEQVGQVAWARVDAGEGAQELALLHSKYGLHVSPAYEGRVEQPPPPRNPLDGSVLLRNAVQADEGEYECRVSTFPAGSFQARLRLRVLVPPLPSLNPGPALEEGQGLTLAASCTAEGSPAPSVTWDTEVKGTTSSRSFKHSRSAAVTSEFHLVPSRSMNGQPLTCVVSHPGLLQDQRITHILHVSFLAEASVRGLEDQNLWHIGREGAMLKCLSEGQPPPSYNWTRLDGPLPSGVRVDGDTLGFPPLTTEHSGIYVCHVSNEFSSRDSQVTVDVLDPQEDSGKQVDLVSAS

T3: cynomolgus monkey Nectin-4 (cynomolgus monkey, UniProt A0A2K5WES1 32-510)
T3 construct: whole, on cells; Transiently expressed on CHO-K1 cells; also called cynomolgus Nectin-4
T3 sequence: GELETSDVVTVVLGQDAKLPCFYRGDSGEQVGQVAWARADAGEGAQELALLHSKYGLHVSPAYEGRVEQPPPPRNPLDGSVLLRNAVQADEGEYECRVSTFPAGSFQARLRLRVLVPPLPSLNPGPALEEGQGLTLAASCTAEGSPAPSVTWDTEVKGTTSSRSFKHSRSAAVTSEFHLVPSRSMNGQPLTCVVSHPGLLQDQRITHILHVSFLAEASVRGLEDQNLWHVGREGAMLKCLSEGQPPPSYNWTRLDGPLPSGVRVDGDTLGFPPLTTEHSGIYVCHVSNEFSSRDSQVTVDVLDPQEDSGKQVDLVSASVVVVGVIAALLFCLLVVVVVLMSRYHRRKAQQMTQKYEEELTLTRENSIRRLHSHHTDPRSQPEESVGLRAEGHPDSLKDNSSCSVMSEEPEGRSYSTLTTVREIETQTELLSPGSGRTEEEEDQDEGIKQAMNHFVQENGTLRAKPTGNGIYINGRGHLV

T4: human Nectin-4 (on cells) (human, UniProt Q96NY8 32-510)
T4 construct: also called PVRL4; NECT4_HUMAN
T4 sequence: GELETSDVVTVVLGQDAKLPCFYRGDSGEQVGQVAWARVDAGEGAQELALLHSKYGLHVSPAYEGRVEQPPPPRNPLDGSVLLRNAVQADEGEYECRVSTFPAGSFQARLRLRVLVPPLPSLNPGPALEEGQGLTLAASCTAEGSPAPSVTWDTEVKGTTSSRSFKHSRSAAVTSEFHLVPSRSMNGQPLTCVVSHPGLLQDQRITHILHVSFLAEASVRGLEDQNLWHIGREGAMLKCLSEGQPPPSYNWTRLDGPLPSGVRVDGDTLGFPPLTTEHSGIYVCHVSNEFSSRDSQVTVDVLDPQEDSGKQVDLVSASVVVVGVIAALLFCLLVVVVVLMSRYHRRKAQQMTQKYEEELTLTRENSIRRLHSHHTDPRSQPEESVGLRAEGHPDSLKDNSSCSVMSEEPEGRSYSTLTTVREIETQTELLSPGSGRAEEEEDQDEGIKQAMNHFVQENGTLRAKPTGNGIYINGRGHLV


Legend:
mouse Nectin-4 [1] = target: T1, mouse Nectin-4; test: cell-based ELISA on CHO-K1 cells expressing mouse Nectin-4
[2] = target: T2, recombinant purified human Nectin-4-Fc …; test: BLI (Octet), Nectin-4-Fc on anti-human Fc sensors, run 1
[3] = target: T2, recombinant purified human Nectin-4-Fc …; test: BLI (Octet), Nectin-4-Fc on anti-human Fc sensors, run 2
[4] = target: T3, cynomolgus monkey Nectin-4; test: cell-based ELISA on CHO-K1 cells expressing cynomolgus monkey Nectin-4
[5] = target: T2, recombinant purified human Nectin-4-Fc …; test: BLI (Octet), Nectin-4-Fc on anti-human Fc sensors, run 1; remark: listed apart in the source
[6] = target: T2, recombinant purified human Nectin-4-Fc …; test: BLI (Octet), Nectin-4-Fc on anti-human Fc sensors, run 2; remark: listed apart in the source
[7] = target: T4, human Nectin-4 (on cells); test: flow cytometry on A431 cells (endogenous Nectin-4)
[8] = target: T4, human Nectin-4 (on cells); test: flow cytometry on BeWo cells (endogenous Nectin-4)
[9] = target: T4, human Nectin-4 (on cells); test: flow cytometry on HT-29 cells (endogenous Nectin-4)
mouse Nectin-4 [10] = target: T1, mouse Nectin-4; test: cell-based ELISA on transfected CHO-K1 cells

Row | Binder | binding result (mouse Nectin-4 [1]) | Kd [2] | Kd [3] | binding result [4] | Kd [5] | koff [5] | kon [5] | Kd [6] | koff [6] | kon [6] | EC50 [7] | EC50 [8] | EC50 [9] | binding result (mouse Nectin-4 [10])
1 | LV1185 (VHH, Llama-derived anti-Nectin-4 VHH) VHH: EVQLVESGGGLVQAGGSLRLSCAASRSTFSLNIMGWYRQAPGKQREYVATITTGGSTNYADSVRGRFTISRDNAEDTVYLQMNSLKPEDTAVYYCTAELVRRGPTTYWGRGTQVTVSS | binds | 3.61 nM | 2.34 nM | binds |  |  |  |  |  |  |  |  |  | 
2 | LV1186 (VHH, Llama-derived anti-Nectin-4 VHH) VHH: EVQLVESGGGLVQAGGSLRLSCAASRSTFSLNIMGWYRQAPGKQREYVATITSGGSTNYADSVRGRFTISRDNAENTVYLQMDSLKPEDTAVYYCTAELVRRGPTTYWGRGTQVTVSS | binds | 3.93 nM | 3.94 nM | binds |  |  |  |  |  |  |  |  |  | 
3 | LV1185xVδ2 (bispecific antibody, Orientation N-term-anti-Nectin-4 VHH-linker-anti-Vδ2 VHH (5C8); no Fc; also called Nectin-4xVδ2 bispecific VHH) EVQLVESGGGLVQAGGSLRLSCAASRSTFSLNIMGWYRQAPGKQREYVATITTGGSTNYADSVRGRFTISRDNAEDTVYLQMNSLKPEDTAVYYCTAELVRRGPTTYWGRGTQVTVSSGGGGSEVQLVESGGGLVQAGGSLRLSCAASGRPFSNYAMGWFRQAPGKEREFVAAISWSGGSTSYADSVKGRFTISRDNAKNTVYLQMNSPKPEDTAIYYCAAQFSGADYGFGRLGIRGYEYDYWGQGTQVTVSS |  |  |  |  | 2 nM | 0.00127 s⁻¹ | 642000 M⁻¹ s⁻¹ | 2.4 nM | 0.00144 s⁻¹ | 593000 M⁻¹ s⁻¹ |  |  |  | 
4 | LV1186xVδ2 (bispecific antibody, Orientation N-term-anti-Nectin-4 VHH-linker-anti-Vδ2 VHH (5C8); no Fc; also called Nectin-4xVδ2 bispecific VHH) EVQLVESGGGLVQAGGSLRLSCAASRSTFSLNIMGWYRQAPGKQREYVATITSGGSTNYADSVRGRFTISRDNAENTVYLQMDSLKPEDTAVYYCTAELVRRGPTTYWGRGTQVTVSSGGGGSEVQLVESGGGLVQAGGSLRLSCAASGRPFSNYAMGWFRQAPGKEREFVAAISWSGGSTSYADSVKGRFTISRDNAKNTVYLQMNSPKPEDTAIYYCAAQFSGADYGFGRLGIRGYEYDYWGQGTQVTVSS |  |  |  |  | 2.3 nM | 0.00165 s⁻¹ | 731000 M⁻¹ s⁻¹ | 2.6 nM | 0.0017 s⁻¹ | 660000 M⁻¹ s⁻¹ |  |  |  | 
5 | LV1181 (VHH, Llama-derived anti-Nectin-4 VHH) VHH: EVQLVESGGGLVQAGGSLRLSCAASGSISSINLMGWHRQAPGKQRELVATITRGGSTNYADSVKGRFTISRDNGKNTVYLQMNSLKPEDTAAYYCVDVEPSGMGWRDYWGQGTQVTVSS | binds | 0.8 nM | 0.76 nM | binds |  |  |  |  |  |  | 0.33 nM | 0.4 nM | 1.5 nM | 
6 | LV1181xVδ2 (bispecific antibody, Orientation N-term-anti-Nectin-4 VHH-linker-anti-Vδ2 VHH (5C8); no Fc; also called Nectin-4xVδ2 bispecific VHH) EVQLVESGGGLVQAGGSLRLSCAASGSISSINLMGWHRQAPGKQRELVATITRGGSTNYADSVKGRFTISRDNGKNTVYLQMNSLKPEDTAAYYCVDVEPSGMGWRDYWGQGTQVTVSSGGGGSEVQLVESGGGLVQAGGSLRLSCAASGRPFSNYAMGWFRQAPGKEREFVAAISWSGGSTSYADSVKGRFTISRDNAKNTVYLQMNSPKPEDTAIYYCAAQFSGADYGFGRLGIRGYEYDYWGQGTQVTVSS |  |  |  |  | 0.26 nM | 0.000266 s⁻¹ | 1.04e+06 M⁻¹ s⁻¹ | 0.37 nM | 0.0003 s⁻¹ | 818000 M⁻¹ s⁻¹ |  |  |  | 
7 | LV1183 (VHH, Llama-derived anti-Nectin-4 VHH) VHH: EVQLVESGGGLVQAGGSLRLSCAASGSIFDINLMGWYRQAPGKLRELVASITRGGSTWYVDSVKGRFIISRDSAKNTVYLQMNSLKPGDTAVYYCAAESIGSYTFDRWGQGTQVTVSS |  | 5.7 nM | 7.98 nM | binds |  |  |  |  |  |  |  |  |  | no binding (tested: 0.032 to 500 nM)
8 | LV1187 (VHH, Llama-derived anti-Nectin-4 VHH) VHH: EVQLVESGGGLVQAGGFLRLSCAASRSVFRINVMGWYRQAPGKQRELVAGITSGGSRRLADSVKGRFTISRDNAKNTVYLQMNSLKPEDTAVYYCFAEAVVGDEPYWGQGTQVTVSS | binds | 5.2 nM | 6.09 nM | binds |  |  |  |  |  |  |  |  |  | 
9 | LV1184 (VHH, Llama-derived anti-Nectin-4 VHH) VHH: EVQLVESGGGLVQAGGSLRLSCAASGSISSINLMGWFRQAPAKQRELVTSISPGGSVRYADSVKGRFTISRDVAKNTVDLQMNSLKPEDTAVYYCAAESERTYYFDSWGQGTQVTVSS | binds | 0.51 nM | 0.51 nM | binds |  |  |  |  |  |  | 0.24 nM | 0.3 nM | 1.2 nM | 
10 | LV1178 (VHH, Llama-derived anti-Nectin-4 VHH from phage display) VHH: EVQLVESGGALVQAGGSLRLSCSVSGLTASRLTMGWFRQAPGKEREFVARVYASGGLTDYADSVKGRFTISRDNAKNTVYLQMNSLEPEDTAVYYCVAGLWADMRTMTSTRGYWGQGTQVTVSS |  |  | 8.02 nM | binds |  |  |  |  |  |  |  |  |  | no binding (tested: 0.032 to 500 nM)
11 | LV1184xVδ2 (bispecific antibody, Orientation N-term-anti-Nectin-4 VHH-linker-anti-Vδ2 VHH (5C8); no Fc; also called Nectin-4xVδ2 bispecific VHH) EVQLVESGGGLVQAGGSLRLSCAASGSISSINLMGWFRQAPAKQRELVTSISPGGSVRYADSVKGRFTISRDVAKNTVDLQMNSLKPEDTAVYYCAAESERTYYFDSWGQGTQVTVSSGGGGSEVQLVESGGGLVQAGGSLRLSCAASGRPFSNYAMGWFRQAPGKEREFVAAISWSGGSTSYADSVKGRFTISRDNAKNTVYLQMNSPKPEDTAIYYCAAQFSGADYGFGRLGIRGYEYDYWGQGTQVTVSS |  |  |  |  | 0.07 nM | 6.33e-05 s⁻¹ | 973000 M⁻¹ s⁻¹ | 0.18 nM | 0.000149 s⁻¹ | 844000 M⁻¹ s⁻¹ |  |  |  | 

Reference: patent EP4438624A1 (LAVA Therapeutics N.V., dated 2024)
